# This sample holds only a part of the variants without activity.
# Assays:
# biotinyl-Leu-oxazolone = test: self-aminoacylation, catalytic enhancement (BLO) (fold over background); higher = more active; k-Seq, kA / k0A0; sequences stand for … in GGGAAUGGAUCCACAUCUACGAAUUC…UUCACUGCAGACUUGACGAAGCUG
# Method in brief: (§1)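 The uncatalyzed rate is the low-activity peak of a bimodal Gaussian fit, and catalytic enhancement is median kA divided by it. The kA values came from pseudo-first-order fits, with 1000 bootstraps, of per-sequence fraction reacted measured by streptavidin capture, triplicate qPCR and Illumina sequencing. Mutagenized RNA pools with a 21-nt variable region (0.43 μM) were reacted with each biotinyl-aminoacyl-oxazolone at 2–1250 μM in 50 μL HEPES/NaCl/KCl/MgCl2/CaCl2 buffer with 5% acetonitrile, pH 6.9–7.0, for 90 minutes at room temperature.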
# biotinyl-Trp-oxazolone = test: self-aminoacylation, catalytic enhancement (BWO) (fold over background); higher = more active; k-Seq, kA / k0A0; sequences stand for … in GGGAAUGGAUCCACAUCUACGAAUUC…UUCACUGCAGACUUGACGAAGCUG
# Method in brief: as §1
# biotinyl-Met-oxazolone = test: self-aminoacylation, catalytic enhancement (BMO) (fold over background); higher = more active; k-Seq, kA / k0A0; sequences stand for … in GGGAAUGGAUCCACAUCUACGAAUUC…UUCACUGCAGACUUGACGAAGCUG
# Method in brief: as §1
# biotinyl-Phe-oxazolone = test: self-aminoacylation, catalytic enhancement (BFO) (fold over background); higher = more active; k-Seq, kA / k0A0; sequences stand for … in GGGAAUGGAUCCACAUCUACGAAUUC…UUCACUGCAGACUUGACGAAGCUG
# Method in brief: as §1
# biotinyl-Ile-oxazolone = test: self-aminoacylation, catalytic enhancement (BIO) (fold over background); higher = more active; k-Seq, kA / k0A0; sequences stand for … in GGGAAUGGAUCCACAUCUACGAAUUC…UUCACUGCAGACUUGACGAAGCUG
# Method in brief: as §1
# biotinyl-Val-oxazolone = test: self-aminoacylation, catalytic enhancement (BVO) (fold over background); higher = more active; k-Seq, kA / k0A0; sequences stand for … in GGGAAUGGAUCCACAUCUACGAAUUC…UUCACUGCAGACUUGACGAAGCUG
# Method in brief: as §1
Sequence,self-aminoacylation (biotinyl-Leu-oxazolone),self-aminoacylation (biotinyl-Trp-oxazolone),self-aminoacylation (biotinyl-Met-oxazolone),self-aminoacylation (biotinyl-Phe-oxazolone),self-aminoacylation (biotinyl-Ile-oxazolone),self-aminoacylation (biotinyl-Val-oxazolone)
AAGUUCGCUAAUAGCCGCAAG [Fam3.1 aminoacylation ribozyme variant],1.38,1.75,1.82,1.97,1.35,1.12
AAGUUCGCUAAUAGUCGCUAG [Fam3.1 aminoacylation ribozyme variant],1.47,1.45,1.53,1.34,1.48,1.4
AAGUUCGCUAAUCGUCGCAAG [Fam3.1 aminoacylation ribozyme variant],1.05,2.55,1.25,6.17,1.6,1.48
AAGUUCGCUAAUUGUCGCAAG [Fam3.1 aminoacylation ribozyme variant],2.06,1.51,1.3,3.26,1.68,1.7
AAGUUGGCUAAUAGCCGCAAG [Fam3.1 aminoacylation ribozyme variant],1.95,2.85,2.22,2.16,1.89,1.91
AAGUUGGCUAAUAGUCGCAGG [Fam3.1 aminoacylation ribozyme variant],1.97,1.23,1.6,3.81,1.59,1.34
AAGUUGGCUCAUAGUCGCAAG [Fam3.1 aminoacylation ribozyme variant],1.99,2.44,1.71,2.43,1.8,1.88
AAGUUUACAAAUAGUCGCAAG [Fam3.1 aminoacylation ribozyme variant],1.8,1.98,1.51,2.51,1.92,1.66
AAGUUUACUAAUAGUCGCAAG [Fam3.1 aminoacylation ribozyme variant],1.3,1.5,1.23,2.7,1.4,1.32
AAGUUUACUAAUAGUCGCUAG [Fam3.1 aminoacylation ribozyme variant],1.26,1.69,1.29,2.43,1.39,1.23
AAGUUUACUACUAGUCGCAAG [Fam3.1 aminoacylation ribozyme variant],1.27,1.76,1.46,2.04,1.57,1.6
AAGUUUACUCAUAGUCGCAAG [Fam3.1 aminoacylation ribozyme variant],1.8,1.88,1.58,2.83,1.65,1.43
AAGUUUACUGAUAGUCGCAAG [Fam3.1 aminoacylation ribozyme variant],1.38,1.55,1.02,2.67,1.62,1.32
AAGUUUACUUAUAGUCGCAAG [Fam3.1 aminoacylation ribozyme variant],1.39,1.74,1.92,2.5,1.86,1.58
AAGUUUCCUAAAAGUCGCAAG [Fam3.1 aminoacylation ribozyme variant],2.06,1.71,1.64,2.23,1.7,1.57
AAGUUUCCUAAUAGUCACAAG [Fam3.1 aminoacylation ribozyme variant],1.64,1.23,1.77,2.29,1.8,1.61
AAGUUUCCUAAUAGUCCCAAG [Fam3.1 aminoacylation ribozyme variant],1,1.48,1.5,2.59,1.57,1.73
AAGUUUGAUAAUAGUCGUAAG [Fam3.1 aminoacylation ribozyme variant],0.65,0.783,0.625,1.38,0.716,0.603
AAGUUUGAUAAUAGUCUCAAG [Fam3.1 aminoacylation ribozyme variant],0.638,0.754,0.731,1.46,0.737,0.703
AAGUUUGAUACUAGUCGCAAG [Fam3.1 aminoacylation ribozyme variant],1.37,0.887,0.811,1.36,1.5,1.25
AAGUUUGAUAGUAGUCGCAAG [Fam3.1 aminoacylation ribozyme variant],0.977,1.21,1.17,0.93,0.973,0.979
AAGUUUGAUCAUAGUCGCAAG [Fam3.1 aminoacylation ribozyme variant],1.62,1.2,1.55,2.45,1.69,1.76
AAGUUUGAUGAUAGUCGCAAG [Fam3.1 aminoacylation ribozyme variant],1.63,1.4,1.49,2.4,1.78,1.49
AAGUUUGCAAAGAGUCGCAAG [Fam3.1 aminoacylation ribozyme variant],0.949,1.54,0.929,1.41,0.841,0.832
AAGUUUGCAAAUAGUCGCAUG [Fam3.1 aminoacylation ribozyme variant],0.874,1.46,1.07,0.739,1.14,0.978
AAGUUUGCAAAUAUUCGCAAG [Fam3.1 aminoacylation ribozyme variant],1.09,1.35,1.25,1.3,0.999,1.03

Sequence,self-aminoacylation (biotinyl-Leu-oxazolone),self-aminoacylation (biotinyl-Trp-oxazolone),self-aminoacylation (biotinyl-Met-oxazolone),self-aminoacylation (biotinyl-Phe-oxazolone),self-aminoacylation (biotinyl-Ile-oxazolone),self-aminoacylation (biotinyl-Val-oxazolone)
AAGUUUGCCAAUAGUCGGAAG [Fam3.1 aminoacylation ribozyme variant],0.941,0.79,0.781,1.28,1.14,0.968
AAGUUUGCGAAGAGUCGCAAG [Fam3.1 aminoacylation ribozyme variant],1.04,1,0.955,1.49,1.36,1.21
AAGUUUGCGAAUAGUCGCAAA [Fam3.1 aminoacylation ribozyme variant],1.38,1.31,2.22,1.97,2.03,1.57
AAGUUUGCGAAUCGUCGCAAG [Fam3.1 aminoacylation ribozyme variant],0.942,1,1.19,1.79,1.31,1.1
AAGUUUGCGACUAGUCGCAAG [Fam3.1 aminoacylation ribozyme variant],1.34,1.67,1.73,2.33,1.78,1.34
AAGUUUGCGUAUAGUCGCAAG [Fam3.1 aminoacylation ribozyme variant],0.753,1.23,1.21,1.22,0.888,0.996
AAGUUUGCUAAAAAUCGCAAG [Fam3.1 aminoacylation ribozyme variant],0.891,0.986,0.925,0.949,1.09,0.721
AAGUUUGCUAAAAGCCGCAAG [Fam3.1 aminoacylation ribozyme variant],0.63,1.08,0.604,1.42,0.613,0.689
AAGUUUGCUAAAAGUCACAAG [Fam3.1 aminoacylation ribozyme variant],0.919,2,0.971,3.25,1.35,1.07
AAGUUUGCUAAAAGUCGCAAU [Fam3.1 aminoacylation ribozyme variant],0.929,1.69,1.37,1.15,1.24,1.17
AAGUUUGCUAAAAGUCGCGAG [Fam3.1 aminoacylation ribozyme variant],2.1,2.34,2.21,2.4,1.7,1.68
AAGUUUGCUAAAAGUUGCAAG [Fam3.1 aminoacylation ribozyme variant],0.968,0.711,1.07,1.18,0.983,0.781
AAGUUUGCUAACAGUCGCAAU [Fam3.1 aminoacylation ribozyme variant],0.968,1.58,1.22,0.994,1.13,0.959
AAGUUUGCUAACAGUCGCACG [Fam3.1 aminoacylation ribozyme variant],0.745,0.973,1.19,1.65,0.921,1.18
AAGUUUGCUAACAGUCUCAAG [Fam3.1 aminoacylation ribozyme variant],0.733,1.64,0.713,4.44,0.979,0.694
AAGUUUGCUAAGAAUCGCAAG [Fam3.1 aminoacylation ribozyme variant],0.521,0.588,0.503,0.824,0.583,0.58
AAGUUUGCUAAUAAUCGCAAA [Fam3.1 aminoacylation ribozyme variant],1.09,1.02,1.14,0.86,1.2,1.14
AAGUUUGCUAAUAAUUGCAAG [Fam3.1 aminoacylation ribozyme variant],0.877,0.832,0.862,1.1,0.961,0.857
AAGUUUGCUAAUACUCGCAAA [Fam3.1 aminoacylation ribozyme variant],0.837,1.71,1.22,1.26,1.2,1.05
AAGUUUGCUAAUACUCUCAAG [Fam3.1 aminoacylation ribozyme variant],0.63,0.527,0.512,0.931,0.693,0.721
AAGUUUGCUAAUAGACACAAG [Fam3.1 aminoacylation ribozyme variant],0.654,0.797,0.665,1.23,0.828,0.916
AAGUUUGCUAAUAGAGGCAAG [Fam3.1 aminoacylation ribozyme variant],0.554,0.788,0.692,0.955,0.762,0.733
AAGUUUGCUAAUAGCCGCAUG [Fam3.1 aminoacylation ribozyme variant],1.19,1.54,1.12,2,1.07,1.1
AAGUUUGCUAAUAGCGGCAAG [Fam3.1 aminoacylation ribozyme variant],0.575,0.924,0.508,0.964,0.668,0.646
AAGUUUGCUAAUAGGCGCGAG [Fam3.1 aminoacylation ribozyme variant],0.954,1.42,0.819,1.2,1.16,0.9
